Where two headings read alike, the source gives them in different places.
What was measured:
HLA-A*3101 (Human) [1] = conditions: remark: other sources report otherwise
HLA-A*1101 (human) [2] = conditions: for binding affinity ratio (IC50 standard peptide / IC50 test peptide): remark: other sources report otherwise
HLA-A*3101 (human) [3] = assay: competition with 125I-labelled probe peptide for purified HLA-A*3101, gel filtration; ratio to standard peptide 941.12
HLA-A*6801 (human) [4] = assay: competition with 125I-labelled probe peptide for purified HLA-A*6801, gel filtration; ratio to standard peptide 941.12
HLA-A*0301 (human) [5] = assay: competition with 125I-labelled probe peptide for purified HLA, gel filtration
HLA-A*1101 (human) [6] = assay: as above
HLA-A*3301 (human) [7] = assay: as above; conditions: remark: other sources report otherwise
HLA-A*6801 (human) [8] = assay: as above; conditions: remark: other sources report otherwise
HLA-A*3301 (human) [9] = conditions: for binding affinity ratio (IC50 standard peptide / IC50 test peptide): remark: other sources report otherwise
HLA-A*0301 (human) [10] = assay: competition with 125I-labelled probe peptide for purified HLA-A*0301, gel filtration; relative binding against the standard peptide; conditions: remark: other sources report otherwise; scale: ratio
HLA-A*0301 (human) [11] = assay: competition with 125I probe peptide on purified HLA-A*0301; relative to standard peptide 941.12; conditions: remark: other sources report otherwise
HLA-A*3101 (human) [12] = assay: competition with 125I probe peptide on purified HLA-A*3101; relative to standard peptide 941.12; conditions: remark: other sources report otherwise
HLA-A*6801 (human) [13] = assay: competition with 125I probe peptide on purified HLA-A*6801; relative to standard peptide 941.12; conditions: remark: other sources report otherwise
HLA-A*0301 (human) [14] = assay: inhibition of binding of a 125I-labelled probe peptide to purified HLA-A*0301, gel filtration; relative to the standard peptide; conditions: remark: other sources report otherwise
HLA-B*0702 (Human) = assay: competition with 125I-labelled probe peptide for purified HLA, gel filtration
HLA-B*3501 (Human) = assay: as above
HLA-B*5101 (Human) = assay: as above
HLA-B*5401 (Human) = assay: as above
HLA-A*0301 (human) [15] = assay: competitive inhibition of 125I-labelled probe peptide binding to purified HLA; relative to standard peptide
HLA-DRB1*0101 (human) = target: T1, HLA-DRB1*0101 (human); assay: inhibition of 125I-labelled probe peptide binding to purified HLA-DR; gel filtration; conditions: remark: other sources report otherwise
T1 chain 1: not shown
T1 chain 2: not shown

HLA-DRB1*0401 (human) = target: T2, HLA-DRB1*0401 (human); assay: as above; conditions: remark: other sources report otherwise
T2 chain 1: not shown
T2 chain 2: not shown

HLA-DRB1*0701 (human) = target: T3, HLA-DRB1*0701 (human); assay: as above; conditions: remark: other sources report otherwise
T3 chain 1: not shown
T3 chain 2: not shown

[16] = remark: other sources report otherwise

B1: Peptide 1.0993 (HBV X 130, …) (peptide)
peptide: KVFVLGGCR
modifications: not checked
HLA-A*3101 (Human) [1]
  IC50: 30 nM

B2: HBV POL 2 peptide … (peptide)
peptide: PLSYQHFRK
modifications: not checked
HLA-A*1101 (human) [2]
  binding affinity ratio (IC50 of standard peptide / IC50 of test peptide): 0.0031
HLA-A*3101 (human) [3]
  binding affinity ratio (IC50 of standard peptide / IC50 of test peptide): 0.0006
HLA-A*6801 (human) [4]
  binding affinity ratio (IC50 of standard peptide / IC50 of test peptide): 0.0002

B3: … (HBV NUC 26) (peptide)
peptide: WLWGMDIDPYK
modifications: not checked
HLA-A*0301 (human) [5]; [16]
  binding affinity ratio (IC50 of standard peptide / IC50 of test peptide): 0.003
HLA-A*1101 (human) [6]; [16]
  binding affinity ratio (IC50 of standard peptide / IC50 of test peptide): 0.0013
HLA-A*3301 (human) [7]
  binding affinity ratio (IC50 of standard peptide / IC50 of test peptide): 0.0039
HLA-A*6801 (human) [8]
  binding affinity ratio (IC50 of standard peptide / IC50 of test peptide): 0.049

B4: HBV POL 20 peptide PLEEELPR (peptide)
peptide: PLEEELPR
modifications: not checked
HLA-A*1101 (human) [2]
  binding affinity ratio (IC50 of standard peptide / IC50 of test peptide): -0.0002
HLA-A*3301 (human) [9]
  binding affinity ratio (IC50 of standard peptide / IC50 of test peptide): -0.0009
HLA-A*3101 (human) [3]
  binding affinity ratio (IC50 of standard peptide / IC50 of test peptide): -0.0009
HLA-A*6801 (human) [4]
  binding affinity ratio (IC50 of standard peptide / IC50 of test peptide): 0.0001

B5: HBV NUC 175 peptide … (peptide)
peptide: TTVVRRRGR
modifications: not checked
HLA-A*0301 (human) [10]
  binding affinity ratio (relative to standard peptide): 0.0008

B6: HBV POL 520 peptide SAICSVVR (peptide)
peptide: SAICSVVR
modifications: not checked
HLA-A*1101 (human) [2]
  binding affinity ratio (IC50 standard peptide / IC50 test peptide): 0.0071
HLA-A*3301 (human) [9]
  binding affinity ratio (IC50 standard peptide / IC50 test peptide): 0.0081
HLA-A*0301 (human) [11]
  binding affinity ratio (IC50 standard peptide / IC50 test peptide): -0.0002
HLA-A*3101 (human) [12]
  binding affinity ratio (IC50 standard peptide / IC50 test peptide): 0.028
HLA-A*6801 (human) [13]
  binding affinity ratio (IC50 standard peptide / IC50 test peptide): 0.069
HLA-A*0301 (human) [14]
  binding affinity ratio (IC50 of standard peptide / IC50 of test peptide): -0.0002

B7: HBV POL 98 peptide … (peptide)
peptide: PLTVNEKRR
modifications: not checked
HLA-A*1101 (human) [2]
  binding affinity ratio (IC50 of standard peptide / IC50 of test peptide): 0.0005
HLA-A*3301 (human) [9]
  binding affinity ratio (IC50 of standard peptide / IC50 of test peptide): 0.0027
HLA-A*6801 (human) [4]
  binding affinity ratio (IC50 of standard peptide / IC50 of test peptide): 0.0002

B8: Peptide 26.0153 (HBV X 64, …) (peptide)
peptide: SSAGPCALR
modifications: not checked
HLA-A*3101 (Human) [1]
  IC50: 55 nM

B9: HBV NUC 129 peptide … (peptide)
peptide: PPAYRPPNAPI
modifications: not checked
HLA-B*0702 (Human)
  binding affinity ratio (IC50 of standard peptide / IC50 of test peptide): 0.0003
HLA-B*3501 (Human)
  binding affinity ratio (IC50 of standard peptide / IC50 of test peptide): 0.0001
HLA-B*5101 (Human)
  binding affinity ratio (IC50 of standard peptide / IC50 of test peptide): 0.0001
HLA-B*5401 (Human)
  binding affinity ratio (IC50 of standard peptide / IC50 of test peptide): 0.0001

B10: HBV POL 569 peptide … (peptide)
peptide: HLNPNKTKR
modifications: not checked
HLA-A*0301 (human) [15]
  binding affinity ratio (IC50 of standard peptide / IC50 of test peptide): 0.0025

B11: … (HBV NUC 118) (peptide)
peptide: YLVSFGVWIR
modifications: not checked
HLA-A*0301 (human) [5]
  binding affinity ratio (IC50 of standard peptide / IC50 of test peptide): 0.0005
HLA-A*1101 (human) [6]
  binding affinity ratio (IC50 of standard peptide / IC50 of test peptide): 0.0002

B12: HBV POL 98 peptide PLTVNEKR (peptide)
peptide: PLTVNEKR
modifications: not checked
HLA-A*1101 (human) [2]
  binding affinity ratio (IC50 of standard peptide / IC50 of test peptide): -0.0002
HLA-A*3301 (human) [9]
  binding affinity ratio (IC50 of standard peptide / IC50 of test peptide): -0.0009
HLA-A*3101 (human) [3]
  binding affinity ratio (IC50 of standard peptide / IC50 of test peptide): -0.0009
HLA-A*6801 (human) [4]
  binding affinity ratio (IC50 of standard peptide / IC50 of test peptide): 0.0001

B13: HBV POL 716 peptide … (peptide)
peptide: TAELLAACFAR
modifications: not checked
HLA-A*1101 (human) [2]
  binding affinity ratio (IC50 standard peptide / IC50 test peptide): 0.0023
HLA-A*3301 (human) [9]
  binding affinity ratio (IC50 standard peptide / IC50 test peptide): 0.16
HLA-A*0301 (human) [11]
  binding affinity ratio (IC50 standard peptide / IC50 test peptide): 0.0006
HLA-A*3101 (human) [12]
  binding affinity ratio (IC50 standard peptide / IC50 test peptide): 0.0066
HLA-A*6801 (human) [13]
  binding affinity ratio (IC50 standard peptide / IC50 test peptide): 0.059
HLA-A*0301 (human) [10]
  binding affinity ratio (relative to standard peptide): 0.0006

B14: … (HBV X 52, 15-mer) (peptide)
peptide: HLSLRGLPVCAFSSA
modifications: not checked
HLA-DRB1*0101 (human)
  binding affinity ratio (IC50 of standard peptide / IC50 of test peptide): 1.3
HLA-DRB1*0401 (human)
  binding affinity ratio (IC50 of standard peptide / IC50 of test peptide): 0.0028
HLA-DRB1*0701 (human)
  binding affinity ratio (IC50 of standard peptide / IC50 of test peptide): 0.013
